Assay results published in patent US8580254B2, “Anti-IGF antibodies” (Boehringer Ingelheim International GmbH, priority 2007, dated 2013).
One block for each molecule: values may come before it.

Legend:
[1] = tested on: COLO 205 tumour cells xenografted into nude mice; test: In vivo COLO 205 xenograft study; set-up: species or system athymic NMRI nude mice; settings: 50 mg/kg 5FU alone, once weekly, FIG. 7
Description: Female athymic NMRI nude mice, 6-8 weeks old, are inoculated subcutaneously in the right flank with the COLO 205 human colon tumour-derived cell line (ATCC #CCL-222) (5×10^6 in 100 μl Ringer solution). Tumour cell growth is assessed by measuring tumour volume three times per week using calipers and the formula: π/6× larger diameter×(smaller diameter)^2. Treatment is administered intravenously to groups of ten mice and commenced when tumours have developed to a size of between 130 to 270 mm^3. The treatment schedule consists of two times weekly intravenous infusions of vehicle and antibody 40186 at a dose of 25 mg/kg for two treatment cycles. In combinations of antibody with 5FU, a dose of 50 mg/kg 5FU is administered weekly. The study is terminated when tumours reached an average size of 1500 mm^3. All animal experiments are performed according to the legal requirements in Austria as well as guidelines of the American Association for Laboratory Animal Science (AALAS).

[2] = humans; cited from earlier work
[3] = cynomolgus monkeys; cited from earlier work
[4] = tested on: IGF-2 stimulated COLO 205 cell growth; test: COLO 205 cell growth assay (CellTiter-Glo); format: cell-based, human; settings: 10 ng/ml IGF-2; antibody 5 and 30 μg/ml; 5 days; FIG. 3B
Description: (§1) The COLO 205 colon cancer-derived cell line (ATCC # CCL-222) is plated in 96-well plates at a cell density of 1000 cells per well in serum-free RPMI medium. 10 ng/ml of either IGF-1 or IGF-2 is added in the presence or absence of a control antibody or antibodies 40183 and 40186 at concentrations of 5 and 30 μg/ml. Cells are cultured for 5 days then the cell number in each well determined using the CellTiter-Glo luminescent cell viability assay (Promega). Luminescence was recorded using a XFluor GENios Pro 4.

[5] = tested on: IGF-1 stimulated COLO 205 cell growth; test: COLO 205 cell growth assay (CellTiter-Glo); format: cell-based, human; settings: 10 ng/ml IGF-1; antibody 5 and 30 μg/ml; 5 days; FIG. 3A
Description: as §1

[6] = tested on: insulin stimulated COLO 205 cell growth; test: COLO 205 cell growth assay (CellTiter-Glo); format: cell-based, human; settings: FIG. 3C
murine IGF-1 = target: T1, murine IGF-1 (Mus musculus, UniProt P05017); test: ELISA binding titration of IgG1 antibodies; settings: FIG. 1C
T1 construct: Insulin-like growth factor-1 (IGF-1; a 70 amino-acid polypeptide); purchased R&D Systems
Description: (§2) ELISA screening for IGF-1 positive Fab clones is performed by coating Maxisorb 384-well plates overnight at 4° C. with 5 μg/ml recombinant human IGF-1 (Gropep) in 1× coating buffer (Gibco). Wells are washed with 1×TBS-T and blocked with 1× Blocking Buffer (Gibco) for 1 h at room temperature. Bacterial lysates containing antibody Fab fragments are added for 1.5 hr at room temperature, then washed five times with 1×TBS-T and detected with Alkaline Phosphatase-conjugated Affini Pure Goat Anti-HumanIgG F(ab′)2. Fragment Specific Mab (Dianova) at a dilution of 1:10 000 and visualized with Attophos Substrate (Roche). Fluorescence readings are performed on Tecan fluorescence reader at excitation 430 nm and emission 535 nm.
(§3) Cross-reactivity to recombinant human IGF-1, murine IGF-1, murine IGF-2 (R&D Systems), recombinant human IGF-2, rat IGF-1, rat IGF-2 (Gropep) and recombinant human insulin (Roche) is performed by ELISA using the same procedure as above, but with a 1 μg/ml coating dilution.

rat IGF-1 = target: T2, rat IGF-1 (Rattus norvegicus, UniProt P08025); test: ELISA binding titration of IgG1 antibodies; settings: FIG. 1E
T2 construct: Insulin-like growth factor-1 (IGF-1; a 70 amino-acid polypeptide)
Description: as §2, §3

human IGF-2 = target: T3, human IGF-2 (Homo sapiens, UniProt P01344); test: ELISA binding titration of IgG1 antibodies; settings: FIG. 1B
T3 construct: insulin-like growth factor-2 (IGF-2; a 67 amino-acid polypeptide)
Description: as §2, §3

murine IGF-2 = target: T4, murine IGF-2 (Mus musculus, UniProt P09535); test: ELISA binding titration of IgG1 antibodies; settings: FIG. 1D
T4 construct: insulin-like growth factor-2 (IGF-2; a 67 amino-acid polypeptide); purchased R&D Systems
Description: as §2, §3

rat IGF-2 = target: T5, rat IGF-2 (Rattus norvegicus, UniProt P01346); test: ELISA binding titration of IgG1 antibodies; settings: FIG. 1F
T5 construct: insulin-like growth factor-2 (IGF-2; a 67 amino-acid polypeptide)
Description: as §2, §3

human IGF-1 = target: T6, human IGF-1 (Homo sapiens, UniProt P05019); test: ELISA binding titration of IgG1 antibodies; settings: FIG. 1A
T6 construct: Insulin-like growth factor-1 (IGF-1; a 70 amino-acid polypeptide)
Description: as §2, §3

[7] = target: T7, biotinylated-IGF-1 binding to coated insulin-like growth factor-1 receptor (Homo sapiens, UniProt P05019); test: ELISA neutralization of biotinylated IGF-1 binding to coated IGF-1R
T7 construct: Insulin-like growth factor-1 (IGF-1; a 70 amino-acid polypeptide); purchased R&D Systems (IGF-1R)
Description: To identify IGF antibodies that neutralize the ability of IGF-1 and IGF-2 to bind to the IGF-1R, an ELISA is established by coating plates with 1.5 μg/ml recombinant human IGF-1R (R&D Systems) which allows the binding of biotinylated IGF-1 and biotinylated IGF-2. Bound IGF-1 or IGF-2 is detected using alkaline phosphatase-conjugated streptavidin (1:10,000 dilution) (Roche). The neutralization potency of antibody Fab fragments is measured by adding 0.1-1 μg/ml of Fab to the wells coated with IGF-1R just prior to the addition of biotinylated IGF-1 or IGF-2 ligands. Antibody Fab fragments that block the binding of biotinylated ligand are identified by a reduction in fluorometric signal.

T2 sequence (P08025 49-118 limits assumed): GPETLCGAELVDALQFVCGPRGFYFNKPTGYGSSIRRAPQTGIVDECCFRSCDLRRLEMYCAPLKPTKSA
T5 sequence (P01346 25-91 limits assumed): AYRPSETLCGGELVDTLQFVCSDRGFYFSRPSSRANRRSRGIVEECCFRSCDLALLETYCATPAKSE

Molecule: O=c1[nH]cc(F)c(=O)[nH]1 [5FU, 5-fluorouracil, reference compound]
- decrease in median tumour growth [1]: 30%

Molecule: bevacizumab
- terminal half life [2]: approximately 20 days
- terminal half-life [3]: 206 ± 9.12 h

- binding to murine IGF-1 (ELISA) (murine IGF-1): concentration dependent binding
- binding to rat IGF-1 (ELISA) (rat IGF-1): concentration dependent binding
- binding to human IGF-2 (ELISA) (human IGF-2): concentration dependent binding
- binding to murine IGF-2 (ELISA) (murine IGF-2): concentration dependent binding
- binding to rat IGF-2 (ELISA) (rat IGF-2): concentration dependent binding
- binding to human IGF-1 (ELISA) (human IGF-1): concentration dependent binding
- IC50, inhibition of IGF-1 ligand binding to IGF-1R ([7]; FIG. 2): approximately 5 ng/ml
- IC50 ([7]; FIG. 2, read-out: IC50, inhibition of IGF-1 ligand binding to IGF-1R): ~0.03 nM
B1: antibody 40183: fully human IgG1/Igλ anti-IGF antibody; variable heavy SEQ ID NO:18, variable light SEQ ID NO:20; constant regions as 40186 (antibody, listed as Homo sapiens, V domains shown)
VH: QVELVESGGGLVQPGGSLRLSCAASGFTWSSFAMSWVRQAPGKGLEWVSYISYLGSYTGYADSVKGRFTISRDNSKNTLYLQMNSLRAEDTAVYYCARGTKFDYWGQGTLVTVSS
VL: DIVLTQPPSVSGAPGQRVTISCTGSSSNIGTYDVHWYQQLPGTAPKLLIYSNSKRPSGVPDRFSGSKSGTSASLAITGLQSEDEADYYCSITRVFGGGTKLTVLG
modifications: IgG1/lambda constant regions
notes: fully human IgG1/Igλ anti-IGF antibody; constant regions as 40186
- effect on IGF-2 induced COLO 205 cell growth [4]: dose dependent inhibition
- effect on IGF-1 induced COLO 205 cell growth [5]: dose dependent inhibition
- effect on insulin induced COLO 205 cell growth [6]: no effect
